How the values were obtained:
Experiment in all cases: SPR
[1] = target: fHbp V2.21 Val (at V1 Val149) to Ala (N. meningitidis)
[2] = target: fHbp 1.P5 (N. meningitidis) (UniProt E6MV22)
[3] = target: fHbp V3.28 Val (at V1 Ile311) to Ala (N. meningitidis)
[4] = target: fHbp 3.P30 (N. meningitidis) (UniProt E6MV22)
[5] = target: fHbp V3.28 Leu (at V1 Phe174) to Ala (N. meningitidis)
[6] = target: fHbp V3.28 Gly (at V1 Glu109) to Ala (N. meningitidis)
[7] = target: fHbp 1.P15 (N. meningitidis) (UniProt E6MV22)
[8] = target: fHbp V3.28 Ile (at V1 Ile147) to Ala (N. meningitidis)
[9] = target: fHbp 1.P4 (N. meningitidis) (UniProt E6MV22)
[10] = target: fHbp V3.28 Val (at V1 Ile196) to Ala (N. meningitidis)
[11] = target: fHbp 2.P25 (N. meningitidis) (UniProt E6MV22)
[12] = target: fHbp 2.P23 (N. meningitidis) (UniProt E6MV22)
[13] = target: fHbp V3.28 Gln (at V1 Lys107) to Ala (N. meningitidis)
[14] = target: fHbp V1.1 Ser302 to Ala (N. meningitidis)
[15] = target: fHbp V2.21 Ile (at V1 Ile147) to Ala (N. meningitidis)
[16] = target: fHbp V2.21 Arg (at V1 Arg106) to Ala (N. meningitidis)
[17] = target: fHbp V3.28 Ala (at V1 Pro265) to Pro (N. meningitidis)
[18] = target: fHbp V1.1 His313 to Ala (N. meningitidis)
[19] = target: fHbp V2.21 Lys (at V1 Lys92) to Ala (N. meningitidis)
[20] = target: fHbp V2.21 Gln (at V1 Gln103) to Ala (N. meningitidis)
[21] = target: fHbp V3.28 Val (at V1 Leu171) to Ala (N. meningitidis)
[22] = target: fHbp 2.P16 (N. meningitidis) (UniProt E6MV22)
[23] = target: fHbp V3.28 Asp (at V1 Gln103) to Ala (N. meningitidis)
[24] = target: fHbp 2.P19 (N. meningitidis) (UniProt E6MV22)
[25] = target: fHbp V1.1 His203 to Ala (N. meningitidis)
[26] = target: fHbp V3.28 Ser (at V1 Gln193) to Ala (N. meningitidis)
[27] = target: fHbp V1.1 Pro265 to Ala (N. meningitidis)
[28] = target: fHbp V3.28 Ser (at V1 Ser302) to Ala (N. meningitidis)
[29] = target: fHbp 1.P13 (N. meningitidis) (UniProt E6MV22)
[30] = target: fHbp V3.28 Lys (at V1 His184) to Ala (N. meningitidis)
[31] = target: fHbp V1.1 Asp262 to Ala (N. meningitidis)
[32] = target: fHbp V1.1 Asn108 to Ala (N. meningitidis)
[33] = target: fHbp V2.21 Val (at V1 Ile311) to Ala (N. meningitidis)
[34] = target: fHbp V3.28 Leu (at V1 Ile199) to Ala (N. meningitidis)
[35] = target: fHbp V1.1 Ser286 to Ala (N. meningitidis)
[36] = target: fHbp V1.1 Lys268 to Ala (N. meningitidis)
[37] = target: fHbp V1.1 Ser104 to Ala (N. meningitidis)
[38] = target: fHbp 3.P84 (N. meningitidis) (UniProt E6MV22)
[39] = target: fHbp V1.1 Leu156 to Ala (N. meningitidis)
[40] = target: fHbp V3.28 His (at V1 Ser288) to Ala (N. meningitidis)
[41] = target: fHbp 1.P78 (N. meningitidis) (UniProt E6MV22)
[42] = target: fHbp V3.28 Glu (at V1 Gly267) to Ala (N. meningitidis)
[43] = target: fHbp 1.P276 (N. meningitidis) (UniProt E6MV22)
[44] = target: fHbp V2.21 Ile (at V1 Ser185) to Ala (N. meningitidis)
[45] = target: fHbp V2.21 Glu (at V1 Glu283) to Ala (N. meningitidis)
[46] = target: fHbp V2.21 Ala (at V1 Pro265) to Pro (N. meningitidis)
[47] = target: fHbp V2.21 Arg (at V1 Arg145) to Ala (N. meningitidis)
[48] = target: fHbp V3.28 Asp (at V1 Asp150) to Ala (N. meningitidis)

Chain of CFH67, CCP domains 6 and 7 of complement factor H (P08603 321-443): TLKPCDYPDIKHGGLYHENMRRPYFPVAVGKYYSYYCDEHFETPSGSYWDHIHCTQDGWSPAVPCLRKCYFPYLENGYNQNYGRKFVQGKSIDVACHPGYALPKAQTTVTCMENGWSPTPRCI

## CFH67, CCP domains 6 and 7 of complement factor H (from UniProt P08603 321-443) (domain or fragment)
[1]
  Kd: 6.9 nM
[2]
  Kd: 4.8 nM
[3]
  Kd: 30.3 nM
[4]
  Kd: 1.97 nM
[5]
  Kd: 4.8 nM
[6]
  Kd: 2.82 nM
[7]
  Kd: 11.7 nM
[8]
  Kd: 33.6 nM
[9]
  Kd: 3.94 nM
[10]
  Kd: 11.6 nM
[11]
  Kd: 0.346 nM
[12]
  Kd: 1.99 nM
[13]
  Kd: 46.4 nM
[14]
  Kd: 0.592 nM
[15]
  Kd: 3.58 nM
[16]
  Kd: 5.99 nM
[17]
  Kd: 3.76 nM
[18]
  Kd: 23.5 nM
[19]
  Kd: 2.73 nM
[20]
  Kd: 6.01 nM
[21]
  Kd: 3.07 nM
[22]
  Kd: 3.46 nM
[23]
  Kd: 2.7 nM
[24]
  Kd: 1.91 nM
[25]
  Kd: 1.8 nM
[26]
  Kd: 4.14 nM
[27]
  Kd: 3.62 nM
[28]
  Kd: 6.18 nM
[29]
  Kd: 10.7 nM
[30]
  Kd: 2.76 nM
[31]
  Kd: 6.54 nM
[32]
  Kd: 3.73 nM
[33]
  Kd: 6.07 nM
[34]
  Kd: 25.8 nM
[35]
  Kd: 11.3 nM
[36]
  Kd: 3.53 nM
[37]
  Kd: 9.78 nM
[38]
  Kd: 2.64 nM
[39]
  Kd: 60.5 nM
[40]
  Kd: 7.66 nM
[41]
  Kd: 10.5 nM
[42]
  Kd: 1.45 nM
[43]
  Kd: 8.9 nM
[44]
  Kd: 13.3 nM
[45]
  Kd: 197 nM
[46]
  Kd: 3.7 nM
[47]
  Kd: 0.408 nM
[48]
  Kd: 4.4 nM

## CFHR3_(12), the first two (N-terminal) CCP domains of complement factor H-related 3 (from UniProt Q02985 19-330) (domain or fragment)
[1]
  Kd: 5.82 nM
[2]
  Kd: 55.2 nM
[3]
  Kd: 36.3 nM
[4]
  Kd: 2.93 nM
[5]
  Kd: 4.78 nM
[6]
  Kd: 1.96 nM
[7]
  Kd: 56.4 nM
[8]
  Kd: 17.9 nM
[9]
  Kd: 75 nM
[10]
  Kd: 14.8 nM
[11]
  Kd: 1.61 nM
[12]
  Kd: 1.7 nM
[13]
  Kd: 25.3 nM
[14]
  Kd: 17.2 nM
[15]
  Kd: 8.22 nM
[16]
  Kd: 5.26 nM
[17]
  Kd: 4.82 nM
[18]
  Kd: 50.5 nM
[19]
  Kd: 3.06 nM
[20]
  Kd: 4.01 nM
[21]
  Kd: 3.81 nM
[22]
  Kd: 3.74 nM
[23]
  Kd: 2.81 nM
[24]
  Kd: 2.11 nM
[25]
  Kd: 32.6 nM
[26]
  Kd: 3.03 nM
[27]
  Kd: 130 nM
[28]
  Kd: 7.64 nM
[29]
  Kd: 54.3 nM
[30]
  Kd: 3.05 nM
[31]
  Kd: 89.2 nM
[32]
  Kd: 90.7 nM
[33]
  Kd: 9.68 nM
[34]
  Kd: 34.6 nM
[35]
  Kd: 93.6 nM
[36]
  Kd: 43 nM
[37]
  Kd: 382 nM
[38]
  Kd: 6.08 nM
[39]
  Kd: 311 nM
[40]
  Kd: 9.65 nM
[41]
  Kd: 80 nM
[42]
  Kd: 2.57 nM
[43]
  Kd: 37.9 nM
[44]
  Kd: 6.48 nM
[45]
  Kd: 22.6 nM
[46]
  Kd: 4.12 nM
[47]
  Kd: 2.88 nM
[48]
  Kd: 3.77 nM
